Results on two molecules are retold here after publication PMC10598736, “Structural insights into Rad18 targeting by the SLF1 BRCT domains” (The Journal of Biological Chemistry, 2023).

Square brackets hold non-standard residues; d marks the D form. Ends that are not written are not given here. pS = N[C@@H](COP(=O)(O)O)C(=O)O

Experiment [1] has as its target SLF1 tandem BRCT repeat (SLF1^tBRCT), residues 1-199, wild type (UniProt Q9BQI6). The experiment in a line: ITC; MicroCal ITC 200, 25 °C, 20 mM Tris (pH 7.5), 200 mM sodium chloride; 1.3 mM Rad18 peptide or 6 mM BRCTide injected into 0.1 mM (Rad18 peptides) or 0.2 mM (BRCTide) SLF1^tBRCT in the cell; three independent repeats. A general note: Isothermal titration calorimetry measures the heat released or taken up as one component is titrated into another.

Experiment [2] deals with T1, SLF1^tBRCT R50A (UniProt Q9BQI6 1-199, R50A).
T1 construct: SMC5/6 localization factor 1 (SLF1), tandem BRCT repeat, residues 1-199, with R50A; also called R50A-substituted SLF1^tBRCT; source: E. coli BL21 Rosetta (DE3), purified (same protocol as the wild type)
T1 sequence (looked up): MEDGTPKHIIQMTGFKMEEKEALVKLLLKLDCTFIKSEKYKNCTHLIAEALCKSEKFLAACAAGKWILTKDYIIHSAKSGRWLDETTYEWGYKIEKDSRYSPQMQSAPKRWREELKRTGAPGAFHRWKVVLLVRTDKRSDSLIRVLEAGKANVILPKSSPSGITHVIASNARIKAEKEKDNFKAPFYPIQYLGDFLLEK
The experiment is described as above. The conditions noted are these: both partners purified.

In experiment [3] the target is T2, SLF1^tBRCT K56A (UniProt Q9BQI6 1-199, K56A).
T2 construct: SMC5/6 localization factor 1 (SLF1), tandem BRCT repeat, residues 1-199, with K56A; also called K56A-substituted SLF1^tBRCT; source: E. coli BL21 Rosetta (DE3), purified (same protocol as the wild type)
T2 sequence (looked up): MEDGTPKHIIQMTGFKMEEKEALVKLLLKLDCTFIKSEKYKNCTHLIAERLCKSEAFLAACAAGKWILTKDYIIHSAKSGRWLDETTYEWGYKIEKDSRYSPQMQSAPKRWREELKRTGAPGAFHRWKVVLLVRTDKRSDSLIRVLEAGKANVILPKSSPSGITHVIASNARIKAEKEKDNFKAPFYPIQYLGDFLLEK
The experiment is described as above. The conditions noted are these: both partners purified.

Experiment [4] has as its target T3, SLF1^tBRCT L142A (UniProt Q9BQI6 1-199, L142A).
T3 construct: SMC5/6 localization factor 1 (SLF1), tandem BRCT repeat, residues 1-199, with L142A; source: E. coli BL21 Rosetta (DE3), purified (same protocol as the wild type)
T3 sequence (looked up): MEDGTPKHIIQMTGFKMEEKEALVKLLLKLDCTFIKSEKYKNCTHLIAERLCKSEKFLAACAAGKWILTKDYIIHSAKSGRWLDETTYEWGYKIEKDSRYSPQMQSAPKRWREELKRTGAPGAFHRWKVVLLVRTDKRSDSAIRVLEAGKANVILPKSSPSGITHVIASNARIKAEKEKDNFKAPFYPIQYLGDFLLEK
The experiment is described as above. The conditions noted are these: both partners purified.

Experiment [5] deals with T4, SLF1^tBRCT I189A (UniProt Q9BQI6 1-199, I189A).
T4 construct: SMC5/6 localization factor 1 (SLF1), tandem BRCT repeat, residues 1-199, with I189A; source: E. coli BL21 Rosetta (DE3), purified (same protocol as the wild type)
T4 sequence (looked up): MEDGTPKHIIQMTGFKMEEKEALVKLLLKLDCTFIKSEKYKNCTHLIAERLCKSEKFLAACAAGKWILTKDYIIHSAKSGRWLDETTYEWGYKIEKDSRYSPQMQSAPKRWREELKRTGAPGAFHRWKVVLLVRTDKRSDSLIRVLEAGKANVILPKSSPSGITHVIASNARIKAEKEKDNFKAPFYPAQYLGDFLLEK
The description is as above. The conditions noted are these: both partners purified.

Experiment [6] addresses T5, full-length Rad18 S442E, strep-his-sumo-tagged (human, UniProt Q9NS91 1-495, S442E).
T5 construct: Rad18, human, with the phosphomimetic S442E; also called S442E-substituted Rad18; source: E. coli BL21 Rosetta (DE3), purified (same protocol as the wild type); not shown: Strep, N-terminal, kept; His, N-terminal, kept; SUMO, N-terminal, kept
Put plainly: pull-down; his-strep-sumo-tagged Rad18 (50 μg) held on streptactin beads, incubated with 50 μg SLF1^tBRCT at 4 °C for 60 min; 20 mM Tris (pH 7.5), 200 mM sodium chloride, 2 mM DTT; eluted with D-desthiobiotin, SDS PAGE. To be noted: both partners purified.

Experiment [7] addresses T6, full-length Rad18 S442E/S444E (2SE), strep-his-sumo-tagged (human, UniProt Q9NS91 1-495, S442E | S444E).
T6 construct: Rad18, human, with the phosphomimetics S442E/S444E; also called S442E/S444E (2SE)-substituted Rad18; source: E. coli BL21 Rosetta (DE3), purified (same protocol as the wild type); not shown: Strep, N-terminal, kept; His, N-terminal, kept; SUMO, N-terminal, kept
Described as above. The conditions noted are these: both partners purified.

T5 sequence (Q9NS91 whole entry S442E): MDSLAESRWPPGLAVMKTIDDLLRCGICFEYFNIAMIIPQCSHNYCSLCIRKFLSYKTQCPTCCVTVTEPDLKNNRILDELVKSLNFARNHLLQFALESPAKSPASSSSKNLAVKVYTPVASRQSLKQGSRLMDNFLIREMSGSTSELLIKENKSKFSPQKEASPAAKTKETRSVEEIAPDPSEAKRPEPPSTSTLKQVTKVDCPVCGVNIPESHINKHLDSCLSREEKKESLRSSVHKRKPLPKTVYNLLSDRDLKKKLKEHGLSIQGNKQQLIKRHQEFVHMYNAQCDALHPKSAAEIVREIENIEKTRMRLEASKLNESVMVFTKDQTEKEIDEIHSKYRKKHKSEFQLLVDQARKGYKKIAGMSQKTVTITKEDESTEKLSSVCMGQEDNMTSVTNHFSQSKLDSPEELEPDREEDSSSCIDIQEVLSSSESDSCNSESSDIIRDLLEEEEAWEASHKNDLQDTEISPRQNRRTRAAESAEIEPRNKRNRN
T6 sequence (Q9NS91 whole entry S442E/S444E): as the sequence (Q9NS91 whole entry S442E) above, with S444E counted along it

B1: Rad18 peptide containing phosphorylated Ser442 and Ser444 (Rad18-2P) (peptide, UniProt Q9NS91 436-452, looked up)
peptide: SDSCNS[pS]S[pS]DIIRDLLE
notes: Rad18, human, Ser442/Ser444-containing region, residues 436-452; also called dually phosphorylated Rad18 peptide; source: synthetic peptide
What is called stoichiometry N is the number of molecules, sites or subunits per partner or assembly. As a reminder, the Kd is the constant that tells how readily two partners part at equilibrium. Low values mean a tighter complex, high ones a looser complex. B1: the dH in experiment [1] was -4.04 kcal/mol; in experiment [2], -3.82 kcal/mol; in experiment [3], -0.86 kcal/mol; in experiment [4], -5.07 kcal/mol; in experiment [5], -2.98 kcal/mol. Moreover, the stoichiometry N in experiment [1] is 1.28; in experiment [2] it was 1.45; in experiment [3] it was 1.16; in experiment [4], 1.31; in experiment [5] it was 1.21. Besides, the Kd in experiment [2] was 160 nM; in experiment [3] it was 2210 nM; in experiment [4], 116 nM; in experiment [5] it was 31 nM.

B2: SLF1 tandem BRCT repeat (SLF1^tBRCT), residues 1-199, wild type (domain or fragment, UniProt Q9BQI6 1-199, looked up)
chain: MEDGTPKHIIQMTGFKMEEKEALVKLLLKLDCTFIKSEKYKNCTHLIAERLCKSEKFLAACAAGKWILTKDYIIHSAKSGRWLDETTYEWGYKIEKDSRYSPQMQSAPKRWREELKRTGAPGAFHRWKVVLLVRTDKRSDSLIRVLEAGKANVILPKSSPSGITHVIASNARIKAEKEKDNFKAPFYPIQYLGDFLLEK
notes: SMC5/6 localization factor 1 (SLF1), tandem BRCT repeat at the N-terminus, residues 1-199; coding region optimized for E. coli and synthesized; also called WT; SMC5/6 localization factor 1 tBRCT; source: E. coli BL21 Rosetta (DE3), purified (Ni-NTA, heparin, gel filtration)
As to B2, the binding result in experiment [6] and in experiment [7] was “binds” throughout.
